Measurements from the supplement of paper PMC9170038.

Key:
MS2 coat protein = experiment: apparent KD of MS2 coat protein; higher = weaker reporter binding; settings: Eterna round: R107
Procedure: (§1)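 RNA-MaP round R107: designed RNA switches with theophylline, tryptophan, arginine or FMN aptamers are transcribed on-chip within common flanks. They are titrated with SNAP-549-labelled MS2 coat protein in RNA-MaP buffer (100 mM Tris pH 7.5, 80 mM KCl, 4 mM MgCl2), without ligand or with the indicated ligand. Median apparent KD per design.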

[1] = tested on: K4 kissing-loop RNA reporter; experiment: apparent KD of K4 kissing-loop reporter; higher = weaker reporter binding; settings: Eterna round: R107;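 further: bound reporter read as fluorescence of individual clusters on recovered sequencing chips by microscopy, with normalized cluster intensities fitted with a binding model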
Procedure: as §1, with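 “a labelled K4 kissing-loop RNA reporter” for “SNAP-549-labelled MS2 coat protein”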

[2] = input ligand: theophylline 20 uM
[3] = input ligand: theophylline 2 mM
[4] = input ligand: tryptophan 2.4 mM

| Sequence | apparent KD of MS2 coat protein (MS2 coat protein; input ligand: arginine 13.2 mM) [µM] | apparent KD of MS2 coat protein (MS2 coat protein; input ligand: none) [µM] | apparent KD of MS2 coat protein (MS2 coat protein; [2]) [µM] | apparent KD of MS2 coat protein (MS2 coat protein; [3]) [µM] | apparent KD of MS2 coat protein (MS2 coat protein; [4]) [µM] | apparent KD of K4 kissing-loop reporter ([1]; input ligand: FMN 200 uM) [µM] | apparent KD of K4 kissing-loop reporter ([1]; input ligand: arginine 13.2 mM) [µM] | apparent KD of K4 kissing-loop reporter ([1]; input ligand: none) [µM] | apparent KD of K4 kissing-loop reporter [1, 2] [µM] | apparent KD of K4 kissing-loop reporter [1, 4] [µM] |
| --- | --- | --- | --- | --- | --- | --- | --- | --- | --- | --- |
| AAAAUCCUACCUGAGGAUCACCCAGGUGAAGGAGCGCCCGAAAGGGCAGGUAGGUCGCACCUGAGGAUCACCCUGGUACCUAAAA [ArgAX 27 #DoubleMs2 #OpenEnded #AlternativeMS2] | 0.0862 | 0.061 | 0.0858 | 0.104 | 0.0631 | – | – | – | – | – |
| AAACAGUCGGACAUGAGGAUCACCCAUGUGCGAGGACCGGUACGGCCGCCACUCGACAAGGGCGGUCCCGAAGCAAACAUACGCG [Enedquceor] | 0.0122 | 0.0165 | 0.0337 | 0.0213 | 0.0254 | – | – | – | – | – |
| AAACAUUGCUCAGAUACCAGACAUGAGGAUCACCCAUGUACCGAGGUACCCGAAAGGAAUGUCCCUUGGCAGCUGAGCAAUGAAA [MAT - Exclusion Theophlline B - Mod of Eli - D22] | 0.0142 | – | 0.0153 | – | 0.0114 | – | – | – | – | – |
| AAACGUUGCUCAGAUACCAGACAUGAGGAUCACCCAUGUACCAAGGUACCCGAAAGGAAUGUCCCUUGGCAGCUGAGCAACGAAA [MAT - Exclusion Theophlline B - Mod of Eli - D21] | 0.0111 | – | 0.0119 | – | 0.0104 | – | – | – | – | – |
| AAAUAAAUACAUGAGGAUCACCCAUGUGAAGGAGCGCGCGUUAGCGCAGGUAGGUCGCACAUGAACUCCAAAGUGCGAAAGCACA [MAT - Exclusion Arginine A - Mod of Eli - D9] | 0.0145 | 0.02 | 0.0231 | 0.0341 | 0.0209 | – | – | – | – | – |
| AAAUGUACGUCGGCCGCCACUGCGCUGAAGACAGUCACAUGAGGAUCACCCAUGUACGACAAGGGUAGGACCGGGAUGUGAGGGU [Rate] | 0.0451 | – | 0.13 | 0.217 | – | – | – | – | – | – |
| AACAUACAAUAAAAGGUGGAAAUAAGGCGGCGAGGACCGGUACGGCCGCCACUCGCGUACAUGAGGAUCACCCAUGUCUGAAACU [Same State - Tryptophan A (Freestyle 2)] | 0.0125 | 0.0228 | 0.0242 | 0.0288 | 0.0191 | – | – | – | – | – |
| AACAUCUGGCGUGAUACCAGCCACAUGAGGAUCACCCAUGUCAACACUCGCAAUUGCGACGGCCCUUGGCAGCACGCAUCCUCAG [Sorioncege] | 0.049 | – | 0.0348 | – | 0.0609 | – | – | – | – | – |
| AACAUGAGGAUCACCCAUGUGUCCUCGAAACGAGGACCGGUACGGCCGCCACUCGAAAAGGUGUUGACGAAAAGUCAGCACCAAA [Mat - Exclusion - Trytophan A - D16] | 0.129 | 0.264 | 0.451 | 0.451 | 0.82 | – | – | – | – | – |
| AACGUAUACAGAAGGAGCGUGAAAUAAGUAAAUUAAUAAUAAACAUGAGGAUCACCCAUGUCACAGGUAGGUCGCUGUAUUCGUA [JR_ExcArginiB_Sub017] | 0.0155 | 0.0215 | 0.0236 | 0.0215 | 0.0184 | – | – | – | – | – |
| AACGUAUACAGAAGGAGCGUGAUUUAUAAUUCUUUAAAAUAUACAUGAGGAUCACCCAUGUCACAGGUAGGUCGCUGUAUUCGUA [JR_ExcArginiB_Sub024] | 0.0298 | 0.0357 | 0.0431 | 0.0352 | 0.0332 | – | – | – | – | – |
| AACUUCGCAUAGGAAAACUAUGUGAAGAAUCGAGGACCGGUACGGCCGCCACUCGUCCUCAACAUGAGGAUCACCCAUGUAAUAA [Mat - Exclusion - Trytophan A - D4] | 0.0221 | – | 0.0254 | 0.0226 | – | – | – | – | – | – |
| AAGACAUGAGGAUCACCCAUGUGUCAUGAAGGAGCGUCGGAAAUGACAGGUAGGUCGCAUGACCGUUGGCGCCGGAAACGGCGCA [SSAA #15] | 0.0238 | 0.0305 | 0.0353 | 0.0333 | 0.0235 | – | – | – | – | – |
| AAGACGGUCGGAAGGAGCGGUACAUGAGGAUCACCCAUGUACUUCUGGGCAUCCGUAGUGUGCCAGGUAGGUCGCCGAUUGCGGG [XArg-B12] | 0.0327 | 0.0224 | 0.0363 | 0.0249 | 0.0228 | – | – | – | – | – |
| AAGGAAAAGGCGGCCGCCACUGGAAAGGCGAAAGCCAAGAAAACAUGAGGAUCACCCAUGUCAUGUAGGACCGGGCCAAAAGGAA | 0.01 | 0.0219 | 0.0263 | 0.0147 | 0.0237 | – | – | – | – | – |
| AAUAAACAUGAGGAUCACCCAUGUAUGGAAGGAGCGGUAAAUAAACCAGGUAGGUCGCCAGUGUGAGGGUCAUCUAUGUAAUAAA [Exclusion - Arginine A (Freestyle 1)] | 0.0408 | 0.032 | 0.0536 | 0.0749 | 0.0334 | – | – | – | – | – |

| Sequence | apparent KD of MS2 coat protein (MS2 coat protein; input ligand: arginine 13.2 mM) [µM] | apparent KD of MS2 coat protein (MS2 coat protein; input ligand: none) [µM] | apparent KD of MS2 coat protein (MS2 coat protein; [2]) [µM] | apparent KD of MS2 coat protein (MS2 coat protein; [3]) [µM] | apparent KD of MS2 coat protein (MS2 coat protein; [4]) [µM] | apparent KD of K4 kissing-loop reporter ([1]; input ligand: FMN 200 uM) [µM] | apparent KD of K4 kissing-loop reporter ([1]; input ligand: arginine 13.2 mM) [µM] | apparent KD of K4 kissing-loop reporter ([1]; input ligand: none) [µM] | apparent KD of K4 kissing-loop reporter [1, 2] [µM] | apparent KD of K4 kissing-loop reporter [1, 4] [µM] |
| --- | --- | --- | --- | --- | --- | --- | --- | --- | --- | --- |
| AAUAACAUGAGGAUCACCCAUGUAAAAGAUACCAGGGUGAUGAUCCUCCCUUGGCAGCUUACAGCUGAUCAAUAAGAUCGGCUGA [TheoAS #Tail #MS2BeforeAptamer #BothOrNeither] | 0.0875 | – | 0.256 | – | 0.184 | – | – | – | – | – |
| UUGCCUUUGAGCGAUACCAGCAGCGUCGGCCUUAGAUUGGGAGGCAUGGCAAGUGAUGUUUGCCCUUGGCAGCGCGUAUAGUACA [theeternabot_exclusion_KL_Theo_B_7] | – | – | – | – | – | 0.197 | 0.32 | 0.459 | 0.439 | 0.219 |
| UUGGACCUUAGCCUCAAUAGAACUUUGUUACGAGGACCGGUACGGCCGCCACUCGUCGGGCUCCGAUAGCCAGUGAUGUUGGCAA [theeternabot_sameState_KL_Trp_A_16] | – | – | – | – | – | 0.429 | 0.405 | 0.693 | 1.01 | 0.212 |
| UUGUAUACUUUUGUGUGCGAUGUGUAGCCGCGAGGACCGGUACGGCCGCCACUCGCUGAGAGUGAUGUUCUCUGGGCUAUAUAUC [Skye_SS_TA3] | – | – | – | – | – | 1.1 | 0.924 | 1.7 | 0.794 | 0.234 |
| UUUAAAUAUAGUGAUGUUAUAUAACAAUGACGAGGACCGGUACGGCCGCCACUCGAGAGAGAUAAUGAUAAAAUAAAUAAUUUUC [AstrosSSTrypA#1] | – | – | – | – | – | 0.48 | 0.654 | 0.643 | 0.628 | 0.374 |
| UUUAAAUAUAGUGAUGUUAUAUAACAAUGACGAGGACCGGUACGGCCGCCACUCGAGAGAGAUAAUGAUAAAAUACAUAAUUUUC [AstrosSSTrypA#2] | – | – | – | – | – | 0.668 | 0.746 | 0.806 | 0.709 | 0.474 |
| UUUAAAUAUAGUGAUGUUAUAUAACAAUGACGAGGACCGGUACGGCCGCCACUCGAGAGAGAUAAUGGUCUUACAAAUGUAAGUC [AstrosSSTryA#8] | – | – | – | – | – | 0.546 | 0.589 | 0.852 | 0.738 | 0.399 |
| UUUAACGAGUGAUGUUCGAAAAGUAAUAGUUAGGAUAUCGUUUUUUCGAGAAGGAACUUCGAAGUGAUACGAAAGUAUCGCUUCG [FMN A 1] | – | – | – | – | – | 0.18 | 0.359 | 0.287 | 0.351 | 0.181 |
| UUUAUAUUGUCGGCCGCCACUGGAUCAAUAUUUGUAUGAUCUAGUUCAAAGUGAUGUUUUGAGUCCAGGACCGGGACAUUUGUUA [JR_ExcTryptoB_Sub005] | – | – | – | – | – | 0.708 | 0.558 | 0.669 | 0.558 | 0.917 |
| UUUCGCUUCGUCUGAUAUAAUUGGCCAGAAGGAGCGGUAGAAUUACCAGGUAGGUCGCUGGCCCAGUGAUGUUGGGACUAGCGUG [Isrianve] | – | – | – | – | – | 0.118 | 0.103 | 0.104 | 0.107 | 0.0941 |
| UUUCGGUUCUGAGGAUAUUCGGACAAAUAUAGUGAUGUUGUAUAAGGAGGAGGGUGUUGGGAGUGAGGAGAAGGCAGAAGAGGAU [ExFMNB.S] | – | – | – | – | – | 0.838 | 0.707 | 0.759 | 0.67 | 0.473 |
| UUUGAAAUGUCUGAUACCAGAGAAAAUAUAUGUAGUGAUGUUAUAUACAAAUUUAAUAAGCUCCCUUGGCAGCAGUAUGAAUUUU [AstrosExc-TheB#14] | – | – | – | – | – | 0.593 | 0.717 | 0.796 | 0.748 | 0.582 |
| UUUGGAAGCGGUGUUGAUUAGGGAGCGGAAGGAGCGCCGAGGAGGGCAGGUAGGUCGCCGGAAUGUAGUGAUGUUGCAUAGAGGU [ExArgA.Aa] | – | – | – | – | – | 0.29 | 0.265 | 0.214 | 0.526 | 0.178 |
| UUUGGUUUCUCGGCCGCCACUCGUUGUCUAUCGGCUUCAGGGAUAUAGUGAUGUUAUGUAUAGAAGAGGACCGGGAGAAGGUUCC [ExTryptoB.Dy] | – | – | – | – | – | 0.217 | 0.169 | 0.303 | 0.237 | 0.165 |
| UUUUUUUACUGAAGGAGCGGCAAUUGAUACGUAGAUAUAGUGAUGUUAUAUAAGAUAGAGAGCCAGGUAGGUCGCAGAUUUUUUU [ExArgB.W] | – | – | – | – | – | 0.153 | 0.171 | 0.163 | 0.167 | 0.147 |
